Test results published in patent publication US20200317768A1 (published 2020).
Changes are numbered by the printed parent chain.

T1: cynomolgus monkey FcγRIIIaS extracellular domain, His-tagged (cynomolgus monkey, UniProt Q8SPW2 21-206 at identity 1.00))
T1 construct: also called cyno FcγRIIIaS; cynoFcγRIIIaS; not shown: C-terminal His-tag
T1 chain: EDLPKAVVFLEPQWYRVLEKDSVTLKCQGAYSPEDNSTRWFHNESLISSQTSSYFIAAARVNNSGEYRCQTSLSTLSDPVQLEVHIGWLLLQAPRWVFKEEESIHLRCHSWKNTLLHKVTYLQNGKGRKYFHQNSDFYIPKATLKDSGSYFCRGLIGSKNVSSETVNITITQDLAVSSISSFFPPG

T2: cynomolgus monkey FcγRIIa1 extracellular domain, His-tagged (cynomolgus monkey)
T2 construct: also called cyno FcγRIIa1; cynoFcgRIIa1; not shown: C-terminal His-tag
T2 chain: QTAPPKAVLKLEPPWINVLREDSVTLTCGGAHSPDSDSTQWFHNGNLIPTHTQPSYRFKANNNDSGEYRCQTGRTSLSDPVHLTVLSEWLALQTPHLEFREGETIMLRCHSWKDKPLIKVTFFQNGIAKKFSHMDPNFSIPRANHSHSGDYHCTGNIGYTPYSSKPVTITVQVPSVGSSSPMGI

T3: cynomolgus monkey FcγRIIa3 extracellular domain, His-tagged (cynomolgus monkey)
T3 construct: also called cyno FcγRIIa3; cynoFcgRIIa3; not shown: C-terminal His-tag
T3 chain: T2 chain with P95T, T121A, A128S, H133P, D135N

T4: cynomolgus monkey FcγRIIb extracellular domain, His-tagged (cynomolgus monkey)
T4 construct: also called cyno FcγRIIb; cynoFcγRIIb; not shown: C-terminal His-tag
T4 chain: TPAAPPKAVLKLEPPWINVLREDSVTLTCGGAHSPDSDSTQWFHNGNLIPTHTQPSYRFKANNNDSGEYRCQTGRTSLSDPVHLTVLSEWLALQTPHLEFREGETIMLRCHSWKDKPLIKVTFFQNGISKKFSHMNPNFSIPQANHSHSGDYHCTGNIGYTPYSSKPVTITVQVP

T5: human FcγRIIaR extracellular domain, His-tagged (human, UniProt P12318 34-217)
T5 construct: also called human FcγRIIa (type R); FcgRIIaR; not shown: C-terminal His-tag
T5 chain: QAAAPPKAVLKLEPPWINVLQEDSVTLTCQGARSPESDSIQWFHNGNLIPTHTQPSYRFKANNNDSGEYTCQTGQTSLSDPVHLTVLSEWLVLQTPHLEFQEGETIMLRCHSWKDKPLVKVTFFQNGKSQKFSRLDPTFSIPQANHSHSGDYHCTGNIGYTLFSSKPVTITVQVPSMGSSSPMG

T6: cynomolgus monkey FcγRIIa2 extracellular domain, His-tagged (cynomolgus monkey)
T6 construct: also called cyno FcγRIIa2; cynoFcgRIIa2; not shown: C-terminal His-tag
T6 chain: T2 chain with P95T, T121A, I127K, A128S, K130N, D135N, R142Q

T7: human FcγRIIaH extracellular domain, His-tagged (human, UniProt P12318 34-217)
T7 construct: also called human FcγRIIa (type H); FcgRIIaH; not shown: C-terminal His-tag
T7 sequence: T5 chain with R134H

B1: M103205H795-MY469/M103202L889-SK1 (antibody, human IgG1, kappa)
heavy: QVTLKESGPVLVKPTETLTLTCTVSGIDLSHDDISWVRQAPGKGLEWVGIISYAGSTYYASWAKGRLTISKDTSKNQVVLTMTNMDPVDTATYYCARGVPAYSHGGDLWGQGTLVTVSSASTKGPSVFPLAPSSKSTSGGTAALGCLVKDYFPEPVTVSWNSGALTSGVHTFPAVLQSSGLYSLSSVVTVPSSSLGTQTYICNVNHKPSNTKVDKKVEPKSCDKTHTCPPCPPPELLTGPSVFLFPPKPKDTLMISRTPEVTCVVVDVSDEDPEVKFNWYVDGVEVHNAKTKPREEQYNSTYRVVSVLTVLHQDWLNGKEYKCKVSNKALPKPIEKTISKAKGQPREPQVYTLPPSREEMTKNQVSLTCLVKGFYPSDIAVEWESNGQPENNYKTTPPVLDSDGSFFLYSKLTVDKSRWQQGNVFSCSVMHEALHNHYTQKSLSLSP
light: DIVMTQSPATLSLSPGERATLSCTSSQSVYHANWLSWFQQKPGQPPKLLIYWASTLAYGVPSRFSGSGSGTDFTLTISSLQPEDAATYYCAGGYGGGRYAFGQGTKVEIKRTVAAPSVFIFPPSDEQLKSGTASVVCLLNNFYPREAKVQWKVDNALQSGNSQESVTEQDSKDSTYSLSSTLTLSKADYEKHKVYACEVTHQGLSSPVTKSFNRGEC
notes: copies: 2 + 2
B2: M103205H795-MY473/M103202L889-SK1 (antibody, human IgG1, kappa)
heavy: B1 heavy with P233T
light: B1 light
notes: copies: 2 + 2
B3: M103205H795-MY474/M103202L889-SK1 (antibody, human IgG1, kappa)
heavy: B1 heavy with P233V
light: B1 light
notes: copies: 2 + 2
B4: M103205H795-MY470/M103202L889-SK1 (antibody, human IgG1, kappa)
heavy: B1 heavy with P233Q
light: B1 light
notes: copies: 2 + 2
B5: M103205H795-MY476/M103202L889-SK1 (antibody, human IgG1, kappa)
heavy: B1 heavy with P233Y
light: B1 light
notes: copies: 2 + 2
B6: M103205H795-MY475/M103202L889-SK1 (antibody, human IgG1, kappa)
heavy: B1 heavy with P233W
light: B1 light
notes: copies: 2 + 2
B7: M103205H795-MY472/M103202L889-SK1 (antibody, human IgG1, kappa)
heavy: B1 heavy with P233S
light: B1 light
notes: copies: 2 + 2
B8: M103205H795-MY471/M103202L889-SK1 (antibody, human IgG1, kappa)
heavy: B1 heavy with P233R
light: B1 light
notes: copies: 2 + 2

Target: T1, cynomolgus monkey FcγRIIIaS …
Assay: SPR (BIACORE); KD of SG1 divided by KD of variant;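 also: relative to parent M103205H795-SG1 carrying the SG1 human heavy chain constant region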

Binder | KD fold (SG1 = 1) [fold]
B1 | 0.2
B2 | 0.2
B3 | 0.2
B4 | 0.2
B5 | 0.2
B6 | 0.2
B7 | 0.2
B8 | 0.2

Target: T2, cynomolgus monkey FcγRIIa1 …
Assay: SPR (BIACORE), captured antibody, FcgR as analyte

Binder | Kd [nM]
B1 | 2200
B2 | 1600
B3 | 2000
B4 | 2200
B5 | 1400
B6 | 1000
B7 | 2400
B8 | 2600

Target: T3, cynomolgus monkey FcγRIIa3 …
Assay: SPR (BIACORE), captured antibody, FcgR as analyte

Binder | Kd [nM]
B1 | 4900
B2 | 5500
B3 | 4800
B4 | 4900
B5 | 2600
B6 | 2300
B7 | 5100
B8 | 4500

Target: T4, cynomolgus monkey FcγRIIb extracellular …
Assay: SPR (BIACORE), captured antibody, FcgR as analyte

Binder | Kd [nM]
B1 | 610
B2 | 580
B3 | 500
B4 | 550
B5 | 590
B6 | 270
B7 | 660
B8 | 700

Target: T5, human FcγRIIaR extracellular domain, …
Assay: SPR (BIACORE), captured antibody, FcgR as analyte

Binder | Kd [nM]
B1 | 430
B2 | 490
B3 | 340
B4 | 470
B5 | 250
B6 | 210
B7 | 490
B8 | 470

Target: T6, cynomolgus monkey FcγRIIa2 …
Assay: SPR (BIACORE), captured antibody, FcgR as analyte

Binder | Kd [nM]
B1 | 2100
B2 | 2600
B3 | 1800
B4 | 1800
B5 | 1300
B6 | 1000
B7 | 2100
B8 | 2100

Target: T1, cynomolgus monkey FcγRIIIaS …
Assay: SPR (BIACORE), captured antibody, FcgR as analyte

Binder | Kd [nM]
B1 | 2200
B2 | 1700
B3 | 1600
B4 | 1700
B5 | 2000
B6 | 1700
B7 | 2500
B8 | 1800

target: T7, human FcγRIIaH extracellular domain, …; assay: SPR (BIACORE), captured antibody, FcgR as analyte

Binder | Kd [nM]
B1 | 200
B2 | 220
B3 | 170
B4 | 220
B5 | 140
B6 | 90
B7 | 250
B8 | 230

target: T8, human FcγRIIIaV extracellular domain, His-tagged (human, UniProt P08637 17-208); assay: SPR (BIACORE), captured antibody, FcgR as analyte
T8 construct: also called FcgRIIIaV; not shown: C-terminal His-tag
T8 sequence (P08637 17-208 F176V): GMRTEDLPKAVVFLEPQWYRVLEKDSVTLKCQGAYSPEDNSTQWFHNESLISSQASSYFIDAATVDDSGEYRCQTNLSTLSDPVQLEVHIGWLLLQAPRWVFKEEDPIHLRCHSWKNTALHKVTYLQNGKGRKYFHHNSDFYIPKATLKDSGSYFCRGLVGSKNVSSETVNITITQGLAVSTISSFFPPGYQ

Binder | Kd [nM]
B1 | 5900
B2 | 5200
B3 | 4600
B4 | 5100
B5 | 5500
B6 | 5000
B7 | 6300
B8 | 5300
